The source of these data is paper PMC11795597, “The NADH-dependent flavin reductase ThdF follows an ordered sequential mechanism though crystal structures reveal two FAD molecules in the active site” (The Journal of Biological Chemistry, 2024).

Data set [1] deals with T1, ThdF (Streptomyces albogriseolus, UniProt A0A1B1V585). The experiment in a line: steady-state inhibition kinetics (NADH turnover at […] nm). Format: biochemical.
Data set [2] addresses T2, ThdF (Streptomyces albogriseolus, UniProt A0A1B1V585).
T2 construct: apoThdF (full length) for Kd; elastase-digested ThdF, residues about 7-167 built, for crystals
T2 sequence (A0A1B1V585 1-193): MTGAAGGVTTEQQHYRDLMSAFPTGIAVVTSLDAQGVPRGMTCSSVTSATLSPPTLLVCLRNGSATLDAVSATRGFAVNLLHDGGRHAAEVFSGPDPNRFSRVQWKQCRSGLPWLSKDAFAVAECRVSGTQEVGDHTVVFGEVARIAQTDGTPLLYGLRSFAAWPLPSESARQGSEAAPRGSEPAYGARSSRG
The experiment in a line: fluorescence anisotropy; crystal structures ([…] and […] Å) with two FAD per chain. Format: binding.

Data set [3] addresses T1, ThdF. Nature of the data set: steady-state product inhibition kinetics. Format: biochemical.
Data set [4] has as its target ThdF after in situ proteolysis with elastase, as crystallised (crystal forms 1 and 2) (Streptomyces albogriseolus). The experiment in a line: crystal structure; ThdF with elastase (in situ proteolysis), sitting drop, 20 °C; crystal form 1 (P212121) and form 2 (P21) with two FAD per chain, and form 1 soaked with NADH and dithionite; four molecules per asymmetric unit.
Substrate in data set [5]: Cc1cc2nc3c(=O)[nH]c(=O)nc-3n(C[C@H](O)[C@H](O)[C@H](O)COP(=O)(O)O)c2cc1C
The experiment in a line: steady-state kinetics, KM as variable substrate. Format: biochemical, Streptomyces albogriseolus. The note with it: NADH.

Data set [6] concerns the molecule itself. The experiment in a line: crystal structure; full-length ThdF without protease, initial screening, 2.9 Å; not fully refined and not deposited.
Substrate in data set [7]: NC(=O)C1=CN([C@@H]2O[C@H](COP(=O)(O)OP(=O)(O)OC[C@H]3O[C@@H](n4cnc5c(N)ncnc54)[C@H](O)[C@@H]3O)[C@@H](O)[C@H]2O)C=CC1
The experiment in a line: purified protein.

Consider `Nc1ncnc2c1ncn2[C@@H]1O[C@H](COP(=O)(O)O)[C@@H](O)[C@H]1O` [AMP], for which, in data set [1], the “steady-state inhibition kinetics (NADH turnover at 340 nm)” value is reported as “The lines intersecting on the ordinate indicate competitive inhibition of NADH by AMP”. `Cc1cc2nc3c(=O)[nH]c(=O)nc-3n(C[C@H](O)[C@H](O)[C@H](O)COP(=O)(O)OP(=O)(O)OC[C@H]3O[C@@H](n4cnc5c(N)ncnc54)[C@H](O)[C@@H]3O)c2cc1C` [FAD] had a Kd in data set [2] of 6.8 ± 0.2 µM.

For `NC(=O)c1ccc[n+]([C@@H]2O[C@H](COP(=O)([O-])OP(=O)(O)OC[C@H]3O[C@@H](n4cnc5c(N)ncnc54)[C@H](O)[C@@H]3O)[C@@H](O)[C@H]2O)c1` [NAD^+], in data set [3], the “steady-state product inhibition kinetics” value is “For both substrates, NAD^+ was found to produce a noncompetitive inhibition pattern”. For `NC(=O)c1ccc[n+]([C@@H]2O[C@H](COP(=O)([O-])O)[C@@H](O)[C@H]2O)c1` [NMN], the “steady-state inhibition kinetics (NADH turnover at 340 nm)” value in data set [1] is listed as “The NADH-dependent measurement with NMN showed intersecting lines on the ordinate, confirming competitive inhibition toward NADH”. For the molecule “ThdF after in situ proteolysis with elastase, as crystallised (crystal forms 1 and 2) (from UniProt A0A1B1V585 6-171) (domain or fragment)”, the stoichiometry N in data set [4] was 2.

B1: NADH-dependent flavin reductase ThdF from Streptomyces albogriseolus, full length, His6-tag removed by TEV protease (enzyme, UniProt A0A1B1V585 1-193, looked up)
chain: T2 sequence (A0A1B1V585 1-193)
notes: flavin reductase ThdF of the thienodoline biosynthetic gene cluster, Streptomyces albogriseolus; 193 residues (truncation to 1-168 removed amino acids 169-193); residual amino acids from TEV protease digestion are left at the N terminus; Codon-optimised synthetic gene in pETM-11; copurifies with FAD (occupancy about 124%); the PDB entries 9fd4-9fd6 come from this protein after elastase digestion; …
For the molecule B1, in data set [5], the Km came to 0.28 ± 0.07 µM and the kcat was 0.2 ± 0.08 s⁻¹. Further, the “stoichiometry N” value in data set [6] was 2.

B2: ThdF (Streptomyces albogriseolus) (protein)
chain: GGVTTEQQHYRDLMSAFPTGIAVVTSLDAQGVPRGMTCSSVTSATLSPPTLLVCLRNGSATLDAVSATRGFAVNLLHDGGRHAAEVFSGPDPNRFSRVQWKQCRSGLPWLSKDAFAVAECRVSGTQEVGDHTVVFGEVARIAQTDGTPLLYGLRSFAAWPLPSESA
For B2, the Km in data set [7] is 19.5 ± 5.6 µM. Also, the kcat in data set [7] (FAD binds instead of the stacked FAD, R16 contacts the NMN ribose, H136 of the GDH motif the nicotinamide, S48 of the second protomer) was found to be 0.26 s⁻¹.

What is called Kd is the constant that tells how readily two partners part at equilibrium. In general, stoichiometry N refers to a count of units in the complex or per binding partner. Usually Km stands for the substrate concentration at which the rate is half of its maximum. What is called kcat is the maximal rate divided by the concentration of active sites.
